This passage reports Kd and EC50 (read off the curve) results from patent US20260028406A1.

Test [1] concerns the target purified human tenascin C protein (human) (UniProt P24821). Nature of the test: BLI (biolayer interferometry); format not described. (In general: Biolayer interferometry detects binding as a change in optical thickness at a sensor tip.)
The target is the same in test [2]. Nature of the test: ELISA, plates coated with 3 ug/ml purified human TNC, increasing VHH concentration. On the technique in general: In an ELISA, binding on a coated surface is turned into a signal by an enzyme label.
Test [3] deals with EIIIB domain of fibronectin. Nature of the test: BLI (biolayer interferometry); format not described.
EIIIB domain of fibronectin, sequence (P02751 1271-1359): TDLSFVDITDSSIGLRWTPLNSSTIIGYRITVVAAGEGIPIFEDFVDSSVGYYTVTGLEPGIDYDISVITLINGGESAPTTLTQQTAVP

purified human tenascin C protein (human), sequence (P24821 23-2201): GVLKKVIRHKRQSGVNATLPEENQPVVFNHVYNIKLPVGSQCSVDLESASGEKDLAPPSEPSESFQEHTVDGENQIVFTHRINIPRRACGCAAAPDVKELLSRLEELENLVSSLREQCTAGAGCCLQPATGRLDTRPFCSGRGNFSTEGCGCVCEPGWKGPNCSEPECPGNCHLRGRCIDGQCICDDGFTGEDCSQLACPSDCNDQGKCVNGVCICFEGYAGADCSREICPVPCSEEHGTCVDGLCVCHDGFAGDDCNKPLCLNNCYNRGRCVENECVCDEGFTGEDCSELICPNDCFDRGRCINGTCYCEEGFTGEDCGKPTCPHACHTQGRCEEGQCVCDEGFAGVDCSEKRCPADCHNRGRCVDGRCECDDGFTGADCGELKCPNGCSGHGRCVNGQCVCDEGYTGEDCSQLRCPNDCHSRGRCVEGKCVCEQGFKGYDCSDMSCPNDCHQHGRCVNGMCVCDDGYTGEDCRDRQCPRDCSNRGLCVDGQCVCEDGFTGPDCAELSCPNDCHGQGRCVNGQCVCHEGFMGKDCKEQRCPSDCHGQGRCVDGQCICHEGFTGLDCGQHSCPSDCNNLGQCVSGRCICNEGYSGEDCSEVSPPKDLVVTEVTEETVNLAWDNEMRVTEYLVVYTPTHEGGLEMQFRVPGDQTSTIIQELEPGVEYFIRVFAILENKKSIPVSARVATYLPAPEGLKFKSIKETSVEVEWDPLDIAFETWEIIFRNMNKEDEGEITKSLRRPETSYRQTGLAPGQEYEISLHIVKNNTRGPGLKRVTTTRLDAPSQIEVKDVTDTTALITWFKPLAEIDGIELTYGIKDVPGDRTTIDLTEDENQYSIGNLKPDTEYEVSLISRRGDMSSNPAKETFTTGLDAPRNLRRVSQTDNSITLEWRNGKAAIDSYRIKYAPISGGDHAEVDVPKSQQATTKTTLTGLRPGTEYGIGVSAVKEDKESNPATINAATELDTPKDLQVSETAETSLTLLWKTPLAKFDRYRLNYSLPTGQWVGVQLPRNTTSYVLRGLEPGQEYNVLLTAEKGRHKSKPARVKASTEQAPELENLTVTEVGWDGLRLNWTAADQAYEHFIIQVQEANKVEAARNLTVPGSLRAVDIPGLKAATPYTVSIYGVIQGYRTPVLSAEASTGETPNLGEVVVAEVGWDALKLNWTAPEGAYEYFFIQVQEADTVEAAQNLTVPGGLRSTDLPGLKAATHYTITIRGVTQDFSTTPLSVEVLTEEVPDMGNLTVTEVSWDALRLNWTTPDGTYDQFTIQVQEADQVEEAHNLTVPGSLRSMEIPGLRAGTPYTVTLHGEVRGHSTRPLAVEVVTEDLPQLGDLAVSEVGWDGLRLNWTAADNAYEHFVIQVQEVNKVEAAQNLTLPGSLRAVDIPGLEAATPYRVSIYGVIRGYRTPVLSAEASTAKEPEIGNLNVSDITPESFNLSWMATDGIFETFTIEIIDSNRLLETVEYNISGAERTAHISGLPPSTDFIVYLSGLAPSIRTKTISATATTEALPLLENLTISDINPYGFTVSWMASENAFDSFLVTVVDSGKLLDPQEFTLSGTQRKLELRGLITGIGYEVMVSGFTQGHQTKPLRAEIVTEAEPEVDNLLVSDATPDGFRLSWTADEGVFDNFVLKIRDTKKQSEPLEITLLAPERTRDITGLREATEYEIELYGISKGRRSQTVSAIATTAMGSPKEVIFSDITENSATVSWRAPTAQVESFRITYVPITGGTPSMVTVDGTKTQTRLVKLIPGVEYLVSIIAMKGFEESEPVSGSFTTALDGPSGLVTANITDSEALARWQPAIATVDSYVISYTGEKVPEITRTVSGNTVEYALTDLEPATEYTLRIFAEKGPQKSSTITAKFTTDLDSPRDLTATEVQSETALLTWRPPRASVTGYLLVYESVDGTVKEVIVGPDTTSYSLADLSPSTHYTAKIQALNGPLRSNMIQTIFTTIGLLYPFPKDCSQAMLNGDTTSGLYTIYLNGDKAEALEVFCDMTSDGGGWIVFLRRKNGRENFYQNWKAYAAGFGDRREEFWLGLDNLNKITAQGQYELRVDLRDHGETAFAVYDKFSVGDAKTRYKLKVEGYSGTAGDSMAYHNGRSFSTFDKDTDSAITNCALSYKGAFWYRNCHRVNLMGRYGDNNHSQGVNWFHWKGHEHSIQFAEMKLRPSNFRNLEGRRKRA

B1: NJT6 nanobody (VHH) (VHH)
VHH: QVQLVETGGDLVQPGGSLRLSCAASGLTLDYYAIGWVRQAPGKEREGVSCITPQDGNTYYDDSVMGRFTILRDNAKNMVYLQMNNLKPEDTAVYFCAAAGALTLDPSEYEYWGQGTQVTVSS
For orientation: Kd means the concentration at which binding is half-saturated. As a reminder, the EC50 (read off the curve) is the concentration needed to bring the measured effect to its halfway point. Take B1: the Kd in test [1] is < 1 pM. This molecule also displayed an EC50 (read off the curve) in test [2] of 0.01 ng/mL.

B2: NJT4 nanobody (VHH) (VHH)
VHH: QVQLVESGGGLVQPGGSLRLSCAASGFTFSSYTMRWYRQAPGKERELVAFIGVAGGSTKYADSVKGRFTISRDNTKNTVYLQMNTLKPEDTAVYYCYAPLTPYWGQGTQVTVSS
With B2, the Kd in test [1] is < 1 pM.

B3: NJT3 nanobody (VHH) (VHH)
VHH: QVQLVETGGGLAQAGGSLRLSCAASGRTLSGYAMGWFRQAPGKEREFVAAISWSGRNTYYDYTVQGRFTISKDNAKNTVNLQMNSLKPEDTAVYYCAVSRSLDEFGDGYEMDYWGDGTQVTVSS
For the molecule B3, the Kd in test [1] is < 1 pM. In addition, the EC50 (read off the curve) in test [2] amounted to 0.02 ng/mL.

B4: NJB2 nanobody (VHH) (VHH)
VHH: QVQLVETGGGLVQAGGSLRLSCAASGSTFSHNAGGWYRQAPEKQRELVAGISSDGNINYADSVKDRFTISRDNASNTMYLQMNNLKPEDTAVYVCNIRGSYGNTYYSRWGQGTQVTVSS
In turn, B4 returned a dissociation constant Kd in test [3] of 4000 pM.
